These results are taken from article doi:10.1101/830265.

Where two headings read alike, the source gives them in different places.

Assay [1] deals with α-gliadin (Triticum aestivum). Nature of the assay: SPR. In general terms: Surface plasmon resonance follows binding to a sensor surface in real time, without labels.
In assay [2] the target is γ-gliadin (Triticum aestivum) (UniProt P08453). Nature of the assay: SPR.
Assay [3] has as its target total gliadin fraction (Triticum aestivum). As to the kind of experiment: turbidimetry.
For assay [4] the target is unchanged. As to the kind of experiment: turbidimetry. The source holds these as a separate data set.
Assay [5] shares this target. As to the kind of experiment: turbidimetry. The source holds these as a separate data set.

Chain of γ-gliadin (Triticum aestivum) (P08453 20-327): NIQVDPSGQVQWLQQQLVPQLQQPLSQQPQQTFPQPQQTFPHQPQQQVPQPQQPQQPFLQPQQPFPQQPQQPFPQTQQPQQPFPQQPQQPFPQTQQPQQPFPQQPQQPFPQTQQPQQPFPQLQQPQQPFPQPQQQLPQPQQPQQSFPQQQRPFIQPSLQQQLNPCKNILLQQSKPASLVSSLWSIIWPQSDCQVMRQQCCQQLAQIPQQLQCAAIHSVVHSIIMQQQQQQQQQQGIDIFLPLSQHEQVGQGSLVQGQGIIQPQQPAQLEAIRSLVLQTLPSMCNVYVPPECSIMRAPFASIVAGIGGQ

B1: puroindoline A (natural protein)
chain: DVAGGGGAQQCPVETKLNSCRNYLLDRCSTMKDFPVTWRWWKWWKGGCQELLGECCSRLGQMPPQCRCNIIQGSIQGDLGGIFGFQRDRASKVIQEAKNLPPRCNQGPPCNIPGTIGYYW
Turning to B1, the Kd was 4450 nM in assay [1]; 630 nM in assay [2]; 600 nM in assay [3]; 1000 nM in assay [4]; 400 nM in assay [5]. Further, the response at equilibrium at 2.5 µM PINA amounted to 160 RU in assay [1] and 34 RU in assay [2].

In general, Kd refers to the concentration at which binding is half-saturated. Read a high Kd as a looser complex.
